For assay [1], the target named is T1, biotinylated recombinant human BCMA (Acro Biosystems Cat: #BC7-H82F0) (human, UniProt Q02223 1-54, biotinylated).
T1 construct: Bought reagent; Detected with fluorescent streptavidin
T1 sequence (looked up): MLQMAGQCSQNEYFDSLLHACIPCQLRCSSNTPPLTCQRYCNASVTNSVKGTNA
As to the kind of experiment: flow cytometry; CTX120 cells stained with biotinylated BCMA and fluorescent streptavidin. As to the method: The resultant genetically engineered T cells were characterized for incorporation of the desired gene edits: loss of TCR, loss of MHC I expression, and expression of an anti-BCMA CAR. Approximately one week after gene-editing, allogeneic T cells were assessed for surface expression of TCR, β2M, and anti-BCMA CAR using flow cytometry. The allogeneic cells were stained with biotinylated recombinant human BCMA (Acro Biosystems Cat: #BC7-H82F0) and tagged with fluorescent streptavidin and with fluorescent antibodies targeting cell surface markers. The percentage of cells that were TCR⁻, β2M⁻, and anti-BCMA CAR⁺ was determined. Nine lots of CTX120 cells were prepared from eight healthy donors.
(In general: A flow cytometer gives signals particle by particle.)

The target in another assay is T2, mouse BCMA (mouse, UniProt O88472 1-49, limits assumed).
T2 construct: also called murine BCMA
T2 chain (looked up): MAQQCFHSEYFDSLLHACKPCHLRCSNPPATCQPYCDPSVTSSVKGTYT
As to the kind of experiment: not described (statement within Example 5).

B1: anti-BCMA CAR (CTX-166b) expressed on CTX120 cells (other)
chain: QVQLVQSGAELKKPGASVKVSCKASGNTLTNYVIHWVRQAPGQRLEWMGYILPYNDLTKYSQKFQGRVTITRDKSASTAYMELSSLRSEDTAVYYCTRWDWDGFFDPWGQGTTVTVSSGGGGSGGGGSGGGGSEIVMTQSPATLSVSPGERASISCRASQSLVHSNGNTHLHWYQQRPGQAPRLLIYSVSNRFSEVPARFSGSGSGTDFTLTISSVESEDFAVYYCSQTSHIPYTFGGGTKLEIKSAAAFVPVFLPAKPTTTPAPRPPTPAPTIASQPLSLRPEACRPAAGGAVHTRGLDFACDIYIWAPLAGTCGVLLLSLVITLYCNHRNRKRGRKKLLYIFKQPFMRPVQTTQEEDGCSCRFPEEEEGGCELRVKFSRSADAPAYQQGQNQLYNELNLGRREEYDVLDKRRGRDPEMGGKPRRKNPQEGLYNELQKDKMAEAYSEIGMKGERRRGKGHDGLYQGLSTATKDTYDALHMQALPPR
notes: TRAC and B2M disrupted; also called CTX120 anti-BCMA CAR
As to B1, the binding result in assay [1] is reported as “binds”; in the assay with mouse BCMA, “no binding”.

The record behind these values is patent US20230220059A1 (CRISPR THERAPEUTICS, published 2023).
